This note sets out measurements from PMC6901265 (2019).

In experiment [1] the target is T1, tyrosinase peptide on HLA-A*02:01 (human).
T1 peptide: YMDGTMSQV
Kind of experiment: activation reporter or marker.

The target in experiment [2] is T2, EBV BRLF1 peptide on HLA-A*02:01 (human).
T2 peptide: YVLDHLIVV
The experiment can be described thus: multimer staining.

B1: WT TCR AV8.1-CAVKDTDKLIF-AJ34 BV24.1-CATSDWDDSTGELFF-BJ2.2 (TCR)
alpha AV8.1 AJ34 CDR3: CAVKDTDKLIF
beta BV24.1 BJ2.2 CDR3: CATSDWDDSTGELFF
With B1, the binding result in experiment [1] is reported as “no recognition”; in experiment [2] it was “recognises”.
